Literature values in patent publication US5494894A, “Agent for the regulation of the appetite or a sleeping agent” (Erlanson-Albertsson; Charlotte, priority 1986, dated 1996).

Tested on: patients
Settings: administered intravenously; cited from earlier work

B1: cholocystokinin (peptide, UniProt P06307 21-115, looked up)
Cholecystokinin: QPVPPADPAGSGLQRAEEAPRRQLRVSQRTDGESRAHLGALLARYIQQARKAPSGRMSIVKNLQNLDPSHRISDRDYMGWMDFGRRSAEEYEYPS
modifications: Cholecystokinin
notes: hormone which stimulates the secretion of pancreatic enzymes
- Feeling of satiety: earlier feeling of satiety
